From patent US7166454 (dated 2007)
Where no end group is shown, it is not given here.

Target: T1, refolded processed β-secretase (BACE) (human, UniProt P56817 43-454, limits assumed)
T1 construct: The processed preparation is an equimolar mixture of two species, LRLPRE; It is C-terminally truncated and lacks the transmembrane domain; It is not glycosylated; also called mamapsin 2
Assay: X-ray structure coordinates of the complex

T1 sequence (P56817 43-454 limits assumed): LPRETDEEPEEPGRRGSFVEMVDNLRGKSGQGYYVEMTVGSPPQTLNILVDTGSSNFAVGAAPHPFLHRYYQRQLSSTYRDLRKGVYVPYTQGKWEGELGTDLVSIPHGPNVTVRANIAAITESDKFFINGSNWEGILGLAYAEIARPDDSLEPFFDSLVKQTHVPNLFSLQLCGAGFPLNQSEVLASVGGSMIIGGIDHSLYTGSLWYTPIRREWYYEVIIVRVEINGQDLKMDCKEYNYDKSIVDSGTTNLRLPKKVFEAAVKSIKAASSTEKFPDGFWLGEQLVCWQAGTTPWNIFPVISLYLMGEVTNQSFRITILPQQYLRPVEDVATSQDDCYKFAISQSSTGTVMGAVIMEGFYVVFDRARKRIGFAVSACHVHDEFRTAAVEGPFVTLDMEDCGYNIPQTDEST

B1: OM-99-2 (peptide)
peptide: EVNLAAEF
modifications: also: L4-A5 as hydroxyethylene isostere (2R,4S,5S)-5-amino-4-hydroxy-2,7-dimethyl-octanoyl
notes: also called Bachem catalog # H-5108
**Q.** Does B1 bind?
**A.** Result: binds
